# ± gives the uncertainty stated by the source.
# Test: amyloid nucleation score (Sup35N fusion, yeast selection) (log enrichment); library NNK1; higher = more nucleation; inactive = no reads after selection
# In short: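 Sup35N was fused to peptides of 20 random codons and expressed in psi-negative yeast, which were induced with 100 μM copper sulfate for 24 hours and then grown on medium lacking adenine and uracil for 7 days at 30°C. Plasmid inserts from input and output were sequenced on Illumina. The nucleation score is the DiMSum log enrichment of output over input reads, centred on the mode score of non-aggregating sequences. Sequences with under 100 input reads were left out, and random libraries had three technical output replicates.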
row,Substance,amyloid nucleation score
1,RLSLTINFGNKFRCITGQFD,4.01 ± 0.091
2,RLSSSCSSAEDWYRKGHLLK,-0.063 ± 0.4
3,RLSYISPPSVYLALSRSRMD,0.229 ± 0.75
4,RLVKSEDSNKNGLDLCRYEL,0.753 ± 0.56
5,RLWSRPSS,1.14 ± 0.79
6,RLYFRSSYDCDETRWKEKYM,0.049 ± 0.38
7,RLYNLTSVRKFVLLSSM,0.235 ± 0.4
8,RMEQSCWMTSECRRWKGVWL,0.827 ± 0.44
9,RMFPCYIAV,0.015 ± 0.27
10,RMLCYEFCCLNLDVGIYCAS,inactive
11,RMLDY,0.318 ± 1.2
12,RMSLLYLSSVKLFNWHAALG,-0.465 ± 0.6
13,RNDHSRDHPFLDISWVCLGQ,0.58 ± 1.2
14,RNDTSDVYGSSGRSNRP,0.007 ± 0.37
15,RNFCSSEGPSRHERLCNTKR,-0.542 ± 0.68
16,RNGPSWYSAIPY,inactive
17,RNHDANFPCRVDGPLQSTVR,0.135 ± 0.4
18,RNLYQFM,0.203 ± 0.27
19,RNSSGRGERLLVQYAQKKKR,-0.136 ± 0.41
20,RNWDMGHKQP,2.66 ± 0.12
21,RNWLLDTNSLQVMSPYIFEV,-0.41 ± 0.74
22,RNYTVKKMNLC,inactive
23,RPGVNLWVLFVTMQTPEIRL,3.01 ± 0.11
24,RPLALRVQDSPKSFGQSP,0.145 ± 0.7
25,RPLFIMSLFRGWRRIKLHGS,-0.527 ± 0.49

row,Substance,amyloid nucleation score
1,RPLRCWAIHYGQVYDSSAIL,0.987 ± 0.62
2,RPMYHGYHMH,0.483 ± 0.38
3,RPRHIFDNSKVYNMGPYFYD,1.59 ± 0.56
4,RPRICLWWSLNQMDVWNRDR,2.17 ± 0.31
5,RPSITNRPC,0.735 ± 0.83
6,RPTGLDILS,3.56 ± 0.1
7,RPYGVNR,-0.271 ± 0.66
8,RQDARE,0.004 ± 0.42
9,RQLFIGGAPDLC,0.216 ± 0.59
10,RQNGRKDPGNVKRGITCR,0.066 ± 0.38
11,RQQMTRTCVNDGS,-1.02 ± 2.4
12,RQSQRWYFLLCGYYKAFFRR,1.63 ± 0.73
13,RREFYFLLVIALKSV,1.32 ± 0.31
14,RRGVV,0.659 ± 0.93
15,RRGVYSKVFAENHVLCMLSL,4.01 ± 0.067
16,RRHWTVMVMNIPVGMFIVIR,0.155 ± 0.27
17,RRILGRYRC,-0.129 ± 1.1
18,RRLFMGPI,0.802 ± 1
19,RRNVYFYVWYVSPNVMKYSN,3.84 ± 0.1
20,RRPENKCYHPLVCDFVAVWF,0.476 ± 1.1
21,RRRASGHRASY,-0.52 ± 0.39
22,RRRHWVSSAGGKRRHLVFCA,1.22 ± 0.46
23,RRRRSDKDVYPFQSFMFNVV,0.476 ± 0.3
24,RRRYGRWMLCCCVVWV,-0.147 ± 0.37
25,RRSESCMFYVMWYGNRYLEG,0.638 ± 0.18

row,Substance,amyloid nucleation score
1,RRSWVFFVDWFIFVCLCVNG,inactive
2,RRVLSRGSAVSWALSSGGD,-0.586 ± 0.46
3,RRVTCGLQGVLRENR,0.4 ± 0.46
4,RRYCDTTVFHGYSVSCRAYG,-0.842 ± 0.74
5,RRYHGGDWSLLVNQLN,0.374 ± 0.23
6,RSCLDGSRVMVSWR,0.305 ± 0.46
7,RSDVVVFHQLS,-0.257 ± 1.7
8,RSDYVNDGEYWAFRDRMMNM,-0.126 ± 0.35
9,RSEYAPRTNYK,-0.237 ± 0.48
10,RSFCRSSVIFVFP,2.79 ± 0.19
11,RSFWYDHGIRVGLRLYNCSM,inactive
12,RSHHIWGY,0.353 ± 0.48
13,RSHVVTGYARSGRGLLATDM,0.396 ± 0.45
14,RSKNWMVNRDWGSKVDRLAN,0.089 ± 0.86
15,RSLFMAQVGHMWGRNVIRGI,-0.29 ± 1.7
16,RSLRVA,-0.214 ± 1.2
17,RSMSTIRIEGSESTSFISS,-0.812 ± 1.7
18,RSMYSQCVLIMGAPTRISGL,6.295 ± 0.054
19,RSQKLGHIGRDTLQWGLYCS,-0.024 ± 0.38
20,RSRSGC,0.441 ± 0.51
21,RSSLNTCWMGSYNVLGTRTG,4.39 ± 0.11
22,RSSNLVCYFFSVWWY,2.02 ± 0.44
23,RSSSCKWV,-0.53 ± 0.75
24,RSSSDKPSKTTTWRMLAGTG,-0.113 ± 0.7
25,RSSVVWLWSHYC,0.588 ± 0.56

row,Substance,amyloid nucleation score
1,RSVWDRWFDPIMTFEQESTW,-0.812 ± 1.7
2,RSWPHGCVAEQNTCSPHKLA,1.48 ± 0.55
3,RSYLCDREYCVFGFCLGIYS,3.44 ± 0.15
4,RSYVVSPVNY,-1.18 ± 0.76
5,RTCYNRDTEMSRGCYTMRVA,-0.554 ± 0.77
6,RTNVWVAFVDSRSHGQFCQK,3.68 ± 0.18
7,RTRTFVNPAAAIHMPPSEET,0.049 ± 0.29
8,RTSDLFAIMKVLDIMMSYTE,inactive
9,RTSPPFNTVYYTGEYEIIEI,-0.353 ± 0.54
10,RTSSWPTLTHEALLRSGDLC,-0.637 ± 0.48
11,RTTFA,0.38 ± 0.33
12,RTYSFC,-0.41 ± 0.93
13,RVCKFKFYQFSSSKC,3.75 ± 0.067
14,RVCQKCCPVVYAMNQWIFDW,7.536 ± 0.051
15,RVFLMCCVGEMLRMLQLSSD,6.46 ± 0.073
16,RVFSSFGFMKRRPVWTVWIT,-0.324 ± 0.81
17,RVGYIYHYYLDNQG,-0.175 ± 0.38
18,RVIWEGNAVQTSAWGSADPK,-0.264 ± 0.64
19,RVMLKSDRFYYVLKTCAY,1 ± 0.37
20,RVQCNNMKVCGITIFLMRS,6.516 ± 0.049
21,RVQKNLINDFSESYPLCHWY,-0.553 ± 0.42
22,RVSLSCIMKIYNFDKRVWLG,0.521 ± 0.97
23,RVSSHGLILHFDKDNSMIAV,0.936 ± 0.61
24,RVTPISCKYVLLTPMRLKNR,2.35 ± 0.3
25,RVYRYLPYRYERCLDL,-0.504 ± 0.93

row,Substance,amyloid nucleation score
1,RWCMCVENRGMLVWGWNGFV,-0.245 ± 0.53
2,RWGATRFVVTS,0.304 ± 1.2
3,RWGMFTWVYFMLYALWIMTL,0.042 ± 0.44
4,RWLETVGECCCESARVFCA,-0.45 ± 0.59
5,RWSQNMGSKSVRGTKFNLKL,0.846 ± 0.21
6,RWVTLCRWVNVSSDGELGVR,0.993 ± 0.35
7,RYCQVP,0.348 ± 0.43
8,RYEGKVKHYFKFKIKPMQV,0.809 ± 0.41
9,RYFSWFYVN,-0.089 ± 0.93
10,RYFVYLSVFDYFINHLDIRW,-0.79 ± 0.42
11,RYGPAVLKSSGAAAVGHS,-0.59 ± 0.59
12,RYISTLYEMNLKYVNVVQFH,6.416 ± 0.045
13,RYLSHHP,0.609 ± 0.55
14,RYLVALFSMYKWYGVEKDWK,0.954 ± 0.54
15,RYMLFVFHSLTGYYIRRFVY,-1.22 ± 1
16,RYRCSKVRRAMSKLTYVGMA,4.18 ± 0.07
17,RYRDYSRRIDCLCYVSVPVY,0.564 ± 0.4
18,RYSQTKDLKVLLQHFFIYKF,-1.23 ± 1.7
19,RYSSLRWTISFDNLVVSFRP,0.724 ± 0.68
20,RYSWSYEKKWIDNLQLVLR,-0.609 ± 0.22
21,RYTLILH,-0.355 ± 0.75
22,SAAYQALLTNSYFSLFDVSW,0.823 ± 0.21
23,SACFMMGLDDWCDSR,-0.529 ± 0.35
24,SACNYVRRNVAHVRLLSL,0.564 ± 0.53
25,SAGVTPLEMKSDRIREDAAG,0.629 ± 1

row,Substance,amyloid nucleation score
1,SARRTPCTVIL,0.362 ± 1.4
2,SAVLFIEFCVLIVVMFSIMM,-0.241 ± 1.2
3,SAYPCCLSEDYVSSSGVSNK,0.74 ± 0.48
4,SAYSKILSLPVRMGVWVAHI,0.658 ± 0.42
5,SCDVTILGYLAMMKLDVMWV,-0.074 ± 0.34
6,SCGLINWLRVYHLLSLNSGS,2.31 ± 0.1
7,SCHVTFKVFFLFAGPCREVL,1.98 ± 0.27
8,SCKRSA,0.578 ± 0.4
9,SCKVVILLPSVVKACLTVLP,0.474 ± 0.95
10,SCMMYQMCNWHERAPSTVLL,0.908 ± 0.58
11,SCNCHWY,1.49 ± 0.74
12,SCNHKNSRSHLALQS,1.6 ± 0.44
13,SCPRVTIFCCSGILGREWGK,7.189 ± 0.045
14,SCRRYSYKCSVL,-0.16 ± 1.4
15,SCSVSNGVFCNHGRGCGFRL,2.12 ± 0.18
16,SCSVYTGYSYGLRYNFDLVS,-1.81 ± 2.4
17,SCTGCLFDTELRWISWVGLF,0.074 ± 0.39
18,SDCRKAFIMSHRSDGNLEFV,0.382 ± 1.4
19,SDDHVTVYNRDARRSRSCCL,inactive
20,SDFLTWCDQSLRCVDRYPNA,0.648 ± 0.97
21,SDGRNHTANYPWG,-0.182 ± 0.65
22,SDRGSKPMSVYNLRC,0.305 ± 0.75
23,SDRPMRFNFSNNAYDSHLYL,0.511 ± 0.67
24,SDSLFPTPLDFKMKIWGIMV,0.062 ± 0.85
25,SDTLCPSADWVRRSARCQVD,0.8 ± 0.74

row,Substance,amyloid nucleation score
1,SDTRYGLFVNWRFWDRGSGW,0.238 ± 0.34
2,SDTVWFPYKLITSLHQSAKW,1.41 ± 0.14
3,SDVKF,2.95 ± 0.11
4,SDYFYSGKGFFLAMGLSMSR,-1.5 ± 1.8
5,SECYFSVWFANTALQNRV,0.034 ± 0.4
6,SEEYWVLDWIEVGLKGSLRM,-0.105 ± 0.55
7,SEFASLERSHSHLYMWEFSL,0.171 ± 0.63
8,SERDRLSLMRRVAM,-0.153 ± 1.4
9,SETFEHRLRD,-0.437 ± 0.28
10,SETLTMFRYCISIRDKGPQG,1.24 ± 0.37
11,SEYAVNSGSITFFIHAVWCW,0.349 ± 0.26
12,SFAVHVGVANSSGSCLMLGG,0.277 ± 0.3
13,SFCLFNVIYQFIGKRCPNSG,3.82 ± 0.1
14,SFEDGGLMFMAPDIRGTGTR,0.884 ± 0.79
15,SFESVFRHCRVRCCYGKIRQ,0.685 ± 0.31
16,SFEWSSFTYFSNFWWLEPNT,0.738 ± 0.65
17,SFFWDT,-0.524 ± 0.51
18,SFHLSQFYKNTHMWLIVFES,inactive
19,SFIELMMASRLF,0.367 ± 0.35
20,SFKGYVSWVGSPHRAVG,0.425 ± 0.86
21,SFPVQQIYF,0.971 ± 0.49
22,SFRACFGPWLFIALIPKNTV,-1.1 ± 0.61

# From the supplement of paper PMC12042874
